# In patent US20230399362A1 (B A I LABORATORIES, published 2023):
# Square brackets hold non-standard residues; d marks the D form.
# B1: Tralokinumab (antibody, V domains shown)
# VH: QVQLVQSGAEVKKPGASVKVSCKASGYTFTNYGLSWVRQAPGQGLEWMGWISANNGDTNYGQEFQGRVTMTTDTSTSTAYMELRSLRSDDTAVYYCARDSSSSWARWFFDLWGRGTLVTVSS
# VL: SYVLTQPPSVSVAPGKTARITCGGNIIGSKLVHWYQQKPGQAPVLVIYDDGDRPSGIPERFSGSNSGNTATLTISRVEAGDEADYYCQVWDTGSDPVVFGGGTKLTVL
# B2: Compound 3 (peptide)
# peptide: cyclo(E[dT][dV]W[dP][dP])
# SMILES: CC(C)[C@H]1NC(=O)[C@@H]([C@H](C)O)NC(=O)[C@H](CCC(=O)O)NC(=O)[C@H]2CCCN2C(=O)[C@H]2CCCN2C(=O)[C@H](Cc2c[nH]c3ccccc23)NC1=O
# B3: Compound 5 (peptide)
# peptide: cyclo(WVRE[dP][dP])
# SMILES: CC(C)[C@@H]1NC(=O)[C@H](Cc2c[nH]c3ccccc23)NC(=O)[C@H]2CCCN2C(=O)[C@H]2CCCN2C(=O)[C@H](CCC(=O)O)NC(=O)[C@H](CCCNC(=N)N)NC1=O
# B4: Compound 7 (peptide)
# peptide: cyclo(TR[dF]P[dL][dP])
# SMILES: CC(C)C[C@H]1NC(=O)[C@@H]2CCCN2C(=O)[C@@H](Cc2ccccc2)NC(=O)[C@H](CCCNC(=N)N)NC(=O)[C@H]([C@@H](C)O)NC(=O)[C@H]2CCCN2C1=O
# B5: Compound 2 (peptide)
# peptide: cyclo(RT[dV]E[dF][dP])
# SMILES: CC(C)[C@H]1NC(=O)[C@H]([C@@H](C)O)NC(=O)[C@H](CCCNC(=N)N)NC(=O)[C@H]2CCCN2C(=O)[C@@H](Cc2ccccc2)NC(=O)[C@H](CCC(=O)O)NC1=O
# B6: Compound 1 (peptide)
# peptide: cyclo([dR][dF][dV]YEP)
# SMILES: CC(C)[C@H]1NC(=O)[C@@H](Cc2ccccc2)NC(=O)[C@@H](CCCNC(=N)N)NC(=O)[C@@H]2CCCN2C(=O)[C@H](CCC(=O)O)NC(=O)[C@H](Cc2ccc(O)cc2)NC1=O
# B7: Compound 10 (peptide)
# peptide: cyclo(RDYC[dP][dW][dP])
# SMILES: N=C(N)NCCC[C@@H]1NC(=O)[C@H]2CCCN2C(=O)[C@@H](Cc2c[nH]c3ccccc23)NC(=O)[C@H]2CCCN2C(=O)[C@H](CS)NC(=O)[C@H](Cc2ccc(O)cc2)NC(=O)[C@H](CC(=O)O)NC1=O
# B8: Compound 8 (peptide)
# peptide: cyclo([dL]REPWMP)
# SMILES: CSCC[C@@H]1NC(=O)[C@H](Cc2c[nH]c3ccccc23)NC(=O)[C@@H]2CCCN2C(=O)[C@H](CCC(=O)O)NC(=O)[C@H](CCCNC(=N)N)NC(=O)[C@@H](CC(C)C)NC(=O)[C@@H]2CCCN2C1=O
# B9: Compound 6 (peptide)
# peptide: cyclo(YRE[dT][dV][dP])
# SMILES: CC(C)[C@H]1NC(=O)[C@@H]([C@H](C)O)NC(=O)[C@H](CCC(=O)O)NC(=O)[C@H](CCCNC(=N)N)NC(=O)[C@H](Cc2ccc(O)cc2)NC(=O)[C@H]2CCCN2C1=O
# B10: Compound 9 (peptide)
# peptide: cyclo([dR]L[dW]W[dT]EP)
# SMILES: CC(C)C[C@@H]1NC(=O)[C@@H](CCCNC(=N)N)NC(=O)[C@@H]2CCCN2C(=O)[C@H](CCC(=O)O)NC(=O)[C@@H]([C@H](C)O)NC(=O)[C@H](Cc2c[nH]c3ccccc23)NC(=O)[C@@H](Cc2c[nH]c3ccccc23)NC1=O
# B11: Compound 11 (peptide)
# peptide: cyclo(VP[dL][dW][dV]LRP)
# SMILES: CC(C)C[C@@H]1NC(=O)[C@@H](C(C)C)NC(=O)[C@@H](Cc2c[nH]c3ccccc23)NC(=O)[C@@H](CC(C)C)NC(=O)[C@@H]2CCCN2C(=O)[C@H](C(C)C)NC(=O)[C@@H]2CCCN2C(=O)[C@H](CCCNC(=N)N)NC1=O
# B12: Compound 4 (peptide)
# peptide: cyclo(RE[dV]W[dP][dP])
# SMILES: CC(C)[C@H]1NC(=O)[C@H](CCC(=O)O)NC(=O)[C@H](CCCNC(=N)N)NC(=O)[C@H]2CCCN2C(=O)[C@H]2CCCN2C(=O)[C@H](Cc2c[nH]c3ccccc23)NC1=O
# Biological target: T1, Human IL-13 with an Fc-tag (human, UniProt P35225 35-146, limits assumed)
# T1 construct: Immobilized on CM5 chip (about 5000 RU); also called Interleukin-13; not shown: Fc-tag
# Assay: SPR, BIAcore 8K plus, human IL-13-Fc immobilized on CM5, positive control
# T1 sequence (P35225 35-146 limits assumed): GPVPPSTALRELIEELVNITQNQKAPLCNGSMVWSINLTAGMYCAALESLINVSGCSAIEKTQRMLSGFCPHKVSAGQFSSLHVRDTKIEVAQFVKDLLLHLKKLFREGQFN
row,Kd,Binder
1,0.000309 µM,B1

# Biological target: T1, Human IL-13 with an Fc-tag
# Assay: SPR, BIAcore 8K plus, human IL-13-Fc immobilized on CM5, peptide as analyte, 25 C
row,Kd,Binder
1,22.8 µM,B2
2,47.1 µM,B3
3,85.1 µM,B4
4,17.4 µM,B5
5,16 µM,B6
6,368 µM,B7
7,99.5 µM,B8
8,55.4 µM,B9
9,337 µM,B10
10,622 µM,B11
11,26.2 µM,B12
